The experiment has as its target T1, myostatin (UniProt O14793 267-375, limits assumed).
T1 sequence (looked up): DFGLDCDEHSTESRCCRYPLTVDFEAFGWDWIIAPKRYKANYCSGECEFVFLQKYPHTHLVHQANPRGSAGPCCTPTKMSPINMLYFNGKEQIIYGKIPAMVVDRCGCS
As to the kind of experiment: cell-based or functional assay.

Results on 31 molecules are retold here after patent US20190177370A1 (TOKYO UNIVERSITY OF PHARMACY AND LIFE SCIENCES, published 2019).

Square brackets hold non-standard residues; d marks the D form. Primed or numbered codes have the meaning given here. * marks the point of attachment. m‑dPEG(4)″ = m-dPEG(4) acid, coupled to Acp (R^111 group of Formula (4)), COCCOCCOCCOCCC(=O)*; m‑dPEG(4) = m-dPEG(4) acid, coupled to Acp, with Acp forms R^111 of Formula (4); 2Nal = N[C@@H](Cc1ccc2ccccc2c1)C(=O)O; Cha = N[C@@H](CC1CCCCC1)C(=O)O; Chg = N[C@H](C(=O)O)C1CCCCC1; Nva = CCC[C@H](N)C(=O)O; Ahx = NCCCCCC(=O)O

In the case of {m‑dPEG(4)-Ahx}-HYIEWIKIQIISKLRL-NH2 [PDM-35], the “myostatin inhibitory activity at 1 µM (luciferase reporter assay)” value (“myostatin inhibitory activity at 1 µM” for short) is at least 40 % inhibition. With {m‑dPEG(4)-Ahx}-WYIEYIKIQIISKIRL-NH2 [PDM-50], the “myostatin inhibitory activity at 1 µM” value is at least 40 % inhibition.

B1: PDM-38 (peptide)
peptide: {m‑dPEG(4)″-Ahx}-W[2Nal]IEWIKIQIISKLRL-NH2
SMILES: CC[C@H](C)[C@H](NC(=O)[C@H](Cc1ccc2ccccc2c1)NC(=O)[C@H](Cc1c[nH]c2ccccc12)NC(=O)CCCCCNC(=O)CCOCCOCCOCCOC)C(=O)N[C@@H](CCC(=O)O)C(=O)N[C@@H](Cc1c[nH]c2ccccc12)C(=O)N[C@H](C(=O)N[C@@H](CCCCN)C(=O)N[C@H](C(=O)N[C@@H](CCC(N)=O)C(=O)N[C@H](C(=O)N[C@H](C(=O)N[C@@H](CO)C(=O)N[C@@H](CCCCN)C(=O)N[C@@H](CC(C)C)C(=O)N[C@@H](CCCNC(=N)N)C(=O)N[C@@H](CC(C)C)C(N)=O)[C@@H](C)CC)[C@@H](C)CC)[C@@H](C)CC)[C@@H](C)CC
Take B1: the “myostatin inhibitory activity at 1 µM” value is at least 40 % inhibition.

Consider {m‑dPEG(4)-Ahx}-WYIERIKIQIISKLRL-NH2 [PDM-47], for which the “myostatin inhibitory activity at 1 µM” value is at least 40 % inhibition.

B2: PDM-52 (peptide)
peptide: {m‑dPEG(4)″-Ahx}-WYIEWIKIQI[Nva]SKLRL-NH2
SMILES: CCC[C@H](NC(=O)[C@@H](NC(=O)[C@H](CCC(N)=O)NC(=O)[C@@H](NC(=O)[C@H](CCCCN)NC(=O)[C@@H](NC(=O)[C@H](Cc1c[nH]c2ccccc12)NC(=O)[C@H](CCC(=O)O)NC(=O)[C@@H](NC(=O)[C@H](Cc1ccc(O)cc1)NC(=O)[C@H](Cc1c[nH]c2ccccc12)NC(=O)CCCCCNC(=O)CCOCCOCCOCCOC)[C@@H](C)CC)[C@@H](C)CC)[C@@H](C)CC)[C@@H](C)CC)C(=O)N[C@@H](CO)C(=O)N[C@@H](CCCCN)C(=O)N[C@@H](CC(C)C)C(=O)N[C@@H](CCCNC(=N)N)C(=O)N[C@@H](CC(C)C)C(N)=O
Consider B2, for which the “myostatin inhibitory activity at 1 µM” value was at least 40 % inhibition. Still for that read-out and setting: to H-WYIESIKIQIISKLRL-NH2 [nPDM-46] belongs at least 40 % inhibition; to H-WYIESIKIQIWSKLRL-NH2 [nPDM-63], at least 40 % inhibition.

B3: PDM-44 (peptide)
peptide: {m‑dPEG(4)″-Ahx}-WYIE[2Nal]IKIQIISKLRL-NH2
SMILES: CC[C@H](C)[C@H](NC(=O)[C@H](Cc1ccc(O)cc1)NC(=O)[C@H](Cc1c[nH]c2ccccc12)NC(=O)CCCCCNC(=O)CCOCCOCCOCCOC)C(=O)N[C@@H](CCC(=O)O)C(=O)N[C@@H](Cc1ccc2ccccc2c1)C(=O)N[C@H](C(=O)N[C@@H](CCCCN)C(=O)N[C@H](C(=O)N[C@@H](CCC(N)=O)C(=O)N[C@H](C(=O)N[C@H](C(=O)N[C@@H](CO)C(=O)N[C@@H](CCCCN)C(=O)N[C@@H](CC(C)C)C(=O)N[C@@H](CCCNC(=N)N)C(=O)N[C@@H](CC(C)C)C(N)=O)[C@@H](C)CC)[C@@H](C)CC)[C@@H](C)CC)[C@@H](C)CC
Regarding B3, the “myostatin inhibitory activity at 1 µM” value was at least 40 % inhibition.

With {m‑dPEG(4)-Ahx}-WYIEHIKIQIISKIRL-NH2 [PDM-51], the “myostatin inhibitory activity at 1 µM” value was at least 40 % inhibition. Turning to H-WYIQWIKIQIWSKLRL-NH2 [nPDM-55/E31Q], the “myostatin inhibitory activity at 0.3 µM (luciferase reporter assay)” value (shortened to “myostatin inhibitory activity at 0.3 µM”) is at least 40 % inhibition. For H-WYIKWIKIQIWSKLRL-NH2 [nPDM-55/E31K], the “myostatin inhibitory activity at 0.3 µM” value is at least 40 % inhibition.

With {m‑dPEG(4)-Ahx}-WRIESIKIQIISKLRL-NH2 [PDM-62], the “myostatin inhibitory activity at 1 µM” value was at least 40 % inhibition. For {m‑dPEG(4)-Ahx}-WHIEWIKIQIISKLRL-NH2 [PDM-41], the “myostatin inhibitory activity at 1 µM” value is at least 40 % inhibition. Regarding {m‑dPEG(4)-Ahx}-WYIESIKIQIWSKLRL-NH2 [PDM-63], the “myostatin inhibitory activity at 0.3 µM” value was at least 40 % inhibition and the “myostatin inhibitory activity at 1 µM” value was at least 40 % inhibition.

In the case of {m‑dPEG(4)-Ahx}-WLIEWIKIQIISKLRL-NH2 [PDM-40], the “myostatin inhibitory activity at 1 µM” value is at least 40 % inhibition.

With {m‑dPEG(4)-Ahx}-WYIEWIKIQIWSKLRL-NH2 [PDM-55], the “myostatin inhibitory activity at 0.3 µM” value was at least 40 % inhibition and the “myostatin inhibitory activity at 1 µM” value was at least 40 % inhibition. Consider {m‑dPEG(4)-Ahx}-WYIELIKIQIISKLRL-NH2 [PDM-45], for which the “myostatin inhibitory activity at 1 µM” value is at least 40 % inhibition. Still for that read-out and setting: the result for {m‑dPEG(4)-Ahx}-WRIEWIKIQIISKLRL-NH2 [PDM-42] reads at least 40 % inhibition.

For {m‑dPEG(4)-Ahx}-LYIEWIKIQIISKLRL-NH2 [PDM-34], the “myostatin inhibitory activity at 1 µM” value is at least 40 % inhibition. As to {m‑dPEG(4)-Ahx}-WYIEWIKIQIYSKLRL-NH2 [PDM-56], the “myostatin inhibitory activity at 1 µM” value is at least 40 % inhibition. In the case of {m‑dPEG(4)-Ahx}-WYIEWIKIQIFSKLRL-NH2 [PDM-54], the “myostatin inhibitory activity at 1 µM” value is at least 40 % inhibition. As for {m‑dPEG(4)-Ahx}-WYIEFIKIQIISKIRL-NH2 [PDM-49], the “myostatin inhibitory activity at 1 µM” value was at least 40 % inhibition. As for {m‑dPEG(4)-Ahx}-YYIESIKIQIISKLRL-NH2 [PDM-61], the “myostatin inhibitory activity at 1 µM” value was at least 40 % inhibition. Turning to H-WYIEWIKIQIWSKLRL-NH2 [nPDM-55], the “myostatin inhibitory activity at 0.3 µM” value was at least 40 % inhibition and the “myostatin inhibitory activity at 1 µM” value was at least 40 % inhibition. In the case of {m‑dPEG(4)-Ahx}-YWIEWIKIQIISKLRL-NH2 [PDM-28], the “myostatin inhibitory activity at 1 µM” value is at least 40 % inhibition. As for H-WYIRWIKIQIWSKLRL-NH2 [nPDM-55/E31R], the “myostatin inhibitory activity at 0.3 µM” value was at least 40 % inhibition.

B4: PDM-53 (peptide)
peptide: {m‑dPEG(4)″-Ahx}-WYIEWIKIQI[Chg]SKLRL-NH2
SMILES: CC[C@H](C)[C@H](NC(=O)[C@H](Cc1ccc(O)cc1)NC(=O)[C@H](Cc1c[nH]c2ccccc12)NC(=O)CCCCCNC(=O)CCOCCOCCOCCOC)C(=O)N[C@@H](CCC(=O)O)C(=O)N[C@@H](Cc1c[nH]c2ccccc12)C(=O)N[C@H](C(=O)N[C@@H](CCCCN)C(=O)N[C@H](C(=O)N[C@@H](CCC(N)=O)C(=O)N[C@H](C(=O)N[C@H](C(=O)N[C@@H](CO)C(=O)N[C@@H](CCCCN)C(=O)N[C@@H](CC(C)C)C(=O)N[C@@H](CCCNC(=N)N)C(=O)N[C@@H](CC(C)C)C(N)=O)C1CCCCC1)[C@@H](C)CC)[C@@H](C)CC)[C@@H](C)CC
B4: the “myostatin inhibitory activity at 1 µM” value is at least 40 % inhibition. On the same count and under the same terms, the result for {m‑dPEG(4)-Ahx}-WFIEWIKIQIISKLRL-NH2 [PDM-37] reads at least 40 % inhibition.

B5: PDM-39 (peptide)
peptide: {m‑dPEG(4)″-Ahx}-W[Cha]IEWIKIQIISKLRL-NH2
SMILES: CC[C@H](C)[C@H](NC(=O)[C@H](CC1CCCCC1)NC(=O)[C@H](Cc1c[nH]c2ccccc12)NC(=O)CCCCCNC(=O)CCOCCOCCOCCOC)C(=O)N[C@@H](CCC(=O)O)C(=O)N[C@@H](Cc1c[nH]c2ccccc12)C(=O)N[C@H](C(=O)N[C@@H](CCCCN)C(=O)N[C@H](C(=O)N[C@@H](CCC(N)=O)C(=O)N[C@H](C(=O)N[C@H](C(=O)N[C@@H](CO)C(=O)N[C@@H](CCCCN)C(=O)N[C@@H](CC(C)C)C(=O)N[C@@H](CCCNC(=N)N)C(=O)N[C@@H](CC(C)C)C(N)=O)[C@@H](C)CC)[C@@H](C)CC)[C@@H](C)CC)[C@@H](C)CC
B5: the “myostatin inhibitory activity at 1 µM” value was at least 40 % inhibition. Same read-out and setting: the result for {m‑dPEG(4)-Ahx}-WYIESIKIQIISKLRL-NH2 [PDM-46] reads at least 40 % inhibition; that for {m‑dPEG(4)-Ahx}-WSIEWIKIQIISKLRL-NH2 [PDM-43], at least 40 % inhibition.
